Measured values taken from patent US20110166062A1 (INDIANA UNIVERSITY RESEARCH AND TECHNOLOGY, published 2011).
*1 amine or outer side, *2 acyl side, *3 side chain or, on linkers, in order; H or OH if unused. Where no end group is shown, it is not given here. Side-chain parts run from the residue outwards. [ ]: non-standard residue; d: D form. The star is where a group is joined. γGlu = O=C(O)[C@H](CCC(=O)[*:2])N[*:1]; Palmitoyl = CCCCCCCCCCCCCCCC(=O)*; Aib = CC(C)(N)C(=O)O

Legend:
Assay in all cases: cell-based or functional assay
[1] = biological target: T1, glucagon receptor (UniProt P47871 26-477, limits assumed)
[2] = biological target: T2, GIP receptor (UniProt P48546 22-466)
T2 sequence (looked up): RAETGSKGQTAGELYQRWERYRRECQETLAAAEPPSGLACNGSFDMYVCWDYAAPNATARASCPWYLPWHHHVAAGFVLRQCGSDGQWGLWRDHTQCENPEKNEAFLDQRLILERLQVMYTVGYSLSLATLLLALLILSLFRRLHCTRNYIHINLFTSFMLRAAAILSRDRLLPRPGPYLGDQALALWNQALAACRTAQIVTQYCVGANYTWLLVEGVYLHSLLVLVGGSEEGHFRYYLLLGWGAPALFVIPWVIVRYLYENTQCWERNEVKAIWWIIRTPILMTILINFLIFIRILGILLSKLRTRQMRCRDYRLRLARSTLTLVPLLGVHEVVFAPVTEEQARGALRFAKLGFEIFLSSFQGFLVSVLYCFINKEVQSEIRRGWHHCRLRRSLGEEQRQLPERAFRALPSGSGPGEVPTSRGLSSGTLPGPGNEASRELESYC

[3] = biological target: T3, GLP-1 receptor (UniProt P43220 24-463, limits assumed)
[4] = biological target: T1, glucagon receptor; remark: listed apart in the source
[5] = biological target: T2, GIP receptor; remark: listed apart in the source
[6] = biological target: T3, GLP-1 receptor; remark: listed apart in the source

T1 sequence (P47871 26-477 limits assumed): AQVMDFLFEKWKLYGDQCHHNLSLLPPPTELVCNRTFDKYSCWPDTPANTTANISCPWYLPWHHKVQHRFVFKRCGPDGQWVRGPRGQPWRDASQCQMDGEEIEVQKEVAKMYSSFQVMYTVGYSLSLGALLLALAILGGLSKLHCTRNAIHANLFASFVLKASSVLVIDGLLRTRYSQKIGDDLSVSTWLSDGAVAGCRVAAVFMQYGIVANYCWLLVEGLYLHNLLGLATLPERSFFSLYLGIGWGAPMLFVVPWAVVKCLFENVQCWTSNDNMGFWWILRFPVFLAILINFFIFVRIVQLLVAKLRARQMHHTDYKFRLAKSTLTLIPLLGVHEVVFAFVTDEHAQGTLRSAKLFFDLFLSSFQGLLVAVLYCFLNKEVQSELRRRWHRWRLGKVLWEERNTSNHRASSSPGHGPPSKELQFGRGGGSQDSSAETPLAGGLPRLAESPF

B1: mt-369 (peptide)
peptide: Y[Aib]EGTFTSDK([γGlu-γGlu-Palmitoyl])SIYLDKQAA[Aib]EFVNWLLAGGPSSGAPPPSK-NH2
modifications: N-terminus assumed
SMILES: CCCCCCCCCCCCCCCC(=O)N[C@@H](CCC(=O)N[C@@H](CCC(=O)NCCCC[C@H](NC(=O)[C@H](CC(=O)O)NC(=O)[C@H](CO)NC(=O)[C@@H](NC(=O)[C@H](Cc1ccccc1)NC(=O)[C@@H](NC(=O)CNC(=O)[C@H](CCC(=O)O)NC(=O)C(C)(C)NC(=O)[C@@H](N)Cc1ccc(O)cc1)[C@@H](C)O)[C@@H](C)O)C(=O)N[C@@H](CO)C(=O)N[C@H](C(=O)N[C@@H](Cc1ccc(O)cc1)C(=O)N[C@@H](CC(C)C)C(=O)N[C@@H](CC(=O)O)C(=O)N[C@@H](CCCCN)C(=O)N[C@@H](CCC(N)=O)C(=O)N[C@@H](C)C(=O)N[C@@H](C)C(=O)NC(C)(C)C(=O)N[C@@H](CCC(=O)O)C(=O)N[C@@H](Cc1ccccc1)C(=O)N[C@H](C(=O)N[C@@H](CC(N)=O)C(=O)N[C@@H](Cc1c[nH]c2ccccc12)C(=O)N[C@@H](CC(C)C)C(=O)N[C@@H](CC(C)C)C(=O)N[C@@H](C)C(=O)NCC(=O)NCC(=O)N1CCC[C@H]1C(=O)N[C@@H](CO)C(=O)N[C@@H](CO)C(=O)NCC(=O)N[C@@H](C)C(=O)N1CCC[C@H]1C(=O)N1CCC[C@H]1C(=O)N1CCC[C@H]1C(=O)N[C@@H](CO)C(=O)N[C@@H](CCCCN)C(N)=O)C(C)C)[C@@H](C)CC)C(=O)O)C(=O)O
- EC50, nM; Glucagon Receptor [1]: 2.19 nM
- relative activity; Glucagon Receptor [1]: 1.54%
- EC50, nM; GIP Receptor [2]: 0.0014 nM
- relative activity; GIP Receptor [2]: 204%
- EC50, nM; GLP-1 Receptor [3]: 0.0041 nM
- relative activity; GLP-1 Receptor [3]: 385%
- % Relative activity at the Receptor for Glucagon [4]: 1.54%
- % Relative activity at the Receptor for GIP [5]: 204%
- % Relative activity at the Receptor for GLP-1 [6]: 385%
